Measurements taken from US8822645B2, “Prostaglandin E2 dual variable domain immunoglobulins and uses thereof” (AbbVie Inc., priority 2008, dated 2014).
Blank lines part the entries; values can stand above or below the molecule they belong to.

Experiments:
[1] = test system: human TNFα transgenic B6.Cg(SJL)-Tg(TNF) N21+ mice; test: Human TNFα transgenic induced arthritis model; format: in vivo, mouse; conditions: PGE2 blockade
Protocol: Human TNFα transgenic B6.Cg(SJL)-Tg(TNF) N21+ mice (40 male and 40 females) (Taconic, Hudson, N.Y.) at 4 weeks age were divided into 10 groups of 8 mice (4 male and 4 females/group). Each week, starting from week 5 until week 12 of age the morphology of the rear ankle joints of the mice were evaluated and scored for signs and symptoms of arthritis. Arthritic scores were assigned as follows. • 0=no arthritis (normal appearance and flexion) • 1=mild arthritis (joint distortion) • 2=moderate arthritis (swelling, joint deformation); and • 3=severe arthritis (ankylosis detected on flexion and severely impaired movement)
Animals were randomized to achieve approximately similar mean arthritic score (MAS) for all groups at week 9 at first signs of symptoms. Animals were then treated i.p. twice a week starting from week 10 of age until week 12 of age. Mice in group 1 served as untreated control were administered PBS.

[2] = test system: C57.BL/6 mice, carrageenan-induced footpad edema; test: Carrageenan-induced footpad edema model; format: in vivo, mouse; conditions: 10 mg/kg
Protocol: Carrageenan-Induced Footpad Edema is an acute rodent model of innate immune function. Intradermal (ID) injection of an inflammatory agent causes a rapid influx of neutrophils and fluid edema, which peaks at approximately 4 hours, followed by an influx of macrophages and monocytes, which peaks at approximately 48 hours. C57.BL/6 mice (8-10-week-old, Jackson Laboratories, Bar Harbor, Me.) were injected ID in the rear footpad with 30 μL of either PBS (left) or λ-carrageenen (Sigma Aldrich, St. Louis, Mo.) in PBS (right) at a concentration of 5.0 mg/mL (150 μg/mouse). […] Significant difference for paw thickness was determined by comparing mean paw swelling for each treatment group to vehicle in a Student's two-tailed t-test.
The endpoint measured was the difference in paw swelling (edema) between right and left paws 4 hours after treatment.

[3] = 3H-PGE2 ELISA (PGE2 binding affinity)
Protocol: Alternatively, prostaglandin binding screen for antibodies or DVD-Ig molecules can be determined using a ^3H-PGE2 ELISA. Plates were coated at 50 μl/well with 5 μg/ml of goat anti-human IgG (Fc) (Thermo Scientific #31170, Hudson, N.H.) or goat anti-mouse IgG (Fc) (Thermo Scientific #31125, Hudson, N.H.) in PBS and incubated overnight at 4° C. The following day plates were flicked and blotted dry. Plates were then blocked with 200 μL/well of Superblock (Thermo Scientific #37515, Hudson, N.H.), for 1 hour at room temperature. Plates were flicked and blotted dry. Monoclonal antibodies were diluted to 0.04 μg/ml in PBST (Abbott Bioresearch Center, Worcester, Mass.)/10% Superblock and 50 uL of each antibody or DVD-Ig was added to each well of the pre-blocked ELISA plate at 2 ng/well and incubated for 1 hour at room temperature. Wells were washed 3 times with PBS+0.1% Tween-20. A serial 3 fold titration of ^3H-PGE2 (Perkin Elmer #NET-428, Waltham, Mass.) was prepared in PBST+10% Superblock. Fifty microliters of the ^3H-PGE2 solution was then added to each well of the plate and incubated for 1 hour at room temperature. Wells were washed 6 times with PBST+10% Superblock and 50 μL of scintillation fluid (Perkin Elmer #6013621, Waltham, Mass.) added to each well. Plates were read using the TopCount reader (Perkin Elmer, Waltham, Mass.) with a 5 minutes count delay. EC50 number was determined using GraphPad Prism 5 (GraphPad Software, La Jolla, Calif.).

[4] = test system: PGE2 / human EP4 receptor in HEK293 Gα16 cells; test: EP4 bioassay (Ca++ flux, neutralization of PGE2); format: cell-based
Procedure, shortened: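 Ca++ flux (FLIPR) in HEK293 Gα16 cells stably expressing human EP4, loaded with Ca++-sensitive dye for 90 min. PGE2, alone or pre-incubated with anti-PGE2 antibody, DVD-Ig or isotype control, was added in FLIPR buffer (HBSS, 20 mM HEPES, 0.1% BSA, 2.5 mM probenecid). EC50 derived from PGE2 dose-response.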

[5] = Dynamic light scattering; format: physicochemical; conditions: 2 mg/mL in PBS
Protocol: Samples were centrifuged at 10,000 RPM for 10 minutes before measured on DynaPro-801 Dynamic light scattering system.

[6] = PGE2-biotinamide ELISA (PGE2 binding); conditions: PGE2 VD in N-terminal position, read-out: Direct Bind ELISA N-terminal VD EC50
Procedure, shortened: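 Antibody or DVD-Ig (1 µg/ml) captured on anti-host Fc IgG-coated plates for 1 h at room temperature, then titrated with PGE2-biotinamide serially diluted from 30 nM for 1 h. Binding detected with streptavidin-polyHRP and TMB, absorbance read at 450 nm; EC50 from the titration curve.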

[7] = test system: desired target antigen; test: Direct Bind ELISA of parent antibodies and DVD-Ig constructs; format: binding; conditions: C-terminal variable domain NGF, read-out: Direct Bind ELISA C-terminal VD EC50
Protocol: Enzyme Linked Immunosorbent Assays to screen for antibodies that bind a desired target antigen were performed as follows. […] Plates were washed four times with PBS containing 0.02% Tween 20. Plates were blocked by the addition of 300 μL/well blocking solution (non-fat dry milk powder, various retail suppliers, diluted to 2% in PBS) for ½ hour at room temperature. Plates were washed four times after blocking with PBS containing 0.02% Tween 20.
Wells were washed four times with PBS containing 0.02% Tween 20.
One hundred microliters of antibody or DVD-Ig preparations diluted in blocking solution as described above was added to the desired target antigen plate or desired target antigen/FC fusion plate or the anti-polyHistidine antibody/His tagged desired target antigen plate prepared as described above and incubated for 1 hour at room temperature.
Plates were washed 4 times with PBS containing 0.02% Tween 20.
One hundred microliters of enhanced TMB solution (Neogen Corp. #308177, K Blue, Lexington, Ky.) was added to each well and incubated for 10 minutes at room temperature. The reaction was stopped by the addition of 50 μL 1N sulphuric acid. Plates were read spectrophotometrically at a wavelength of 450 nm.

- Kd [3]: 0.334 nM
B1: 2B5-8.0: murine anti-PGE2 antibody clone, VH SEQ ID 82, VL SEQ ID 83 (antibody, V domains shown)
VH: QVQLQQSGPELVRPGSSVKISCKASGYTFTKYWLGWVKQRPGHGLEWIGDIYPGYDYTHYNEKFKDKATLTVDTSSSTAYMQLSSLTSEDSAIYYCARSDGSSTYWGQGTLVTVSA
VL: DVLMTQTPLSLPVSLGDQASISCTSSQNIVHSNGNTYLEWYLQRPGQSPKLLIYKVSNRFSGVPDRFSGSGSGTVFTLKISRVEAEDLGVYYCFQVSHVPYTFGGGTKLEIKR
- effect on disease progression [1]: no significant effect
- maximal inhibition of paw swelling ([2]; IP 18 hours prior to carrageenan, 4 hours): 40-50%
- % Inhibition ([2]; i.p.): 38 ± 4.6%
- Δ Paw Swelling ([2]; i.p., 4 hours post carrageenan): 0.529 ± 0.04 mm
- IC50 ([4]; EP4 assay): 0.02 nM

B2: Hu2B5.7: humanized anti-PGE2 antibody, VH SEQ ID 74, VL SEQ ID 75 (antibody, V domains shown)
VH: EVQLVQSGAEVKKPGASVKVSCKASGYTFTKYWLGWVRQAPGQGLEWMGDIYPGYDYTHYNEKFKDRVTLTTDTSTSTAYMELRSLRSDDTAVYYCARSDGSSTYWGQGTLVTVSS
VL: DVLMTQTPLSLPVTPGEPASISCTSSQNIVHSNGNTYLEWYLQKPGQSPQLLIYKVSNRFSGVPDRFSGSGSGTDFTLKISRVEAEDVGVYYCFQVSHVPYTFGGGTKVEIKR
- hydrodynamic radius [5]: 5.36 nm

- EC50 [6]: 0.71 nM
- EC50 [7]: > 10 µM
B3: DVD163: DVD-Ig construct listed in Table 4 (antibody)
VH: EVQLVQSGAEVKKPGASVKVSCKASGYTFTKYWLGWVRQAPGQGLEWMGDIYPGYDYTHYNEKFKDRVTLTTDTSTSTAYMELRSLRSDDTAVYYCARSDGSSTYWGQGTLVTVSSASTKGPQVQLQESGPGLVKPSETLSLTCTVSGFSLIGYDLNWIRQPPGKGLEWIGIIWGDGTTDYNSAVKSRVTISKDTSKNQFSLKLSSVTAADTAVYYCARGGYWYATSYYFDYWGQGTLVTVSS
VL: DVLMTQTPLSLPVTPGEPASISCTSSQNIVHSNGNTYLEWYLQKPGQSPQLLIYKVSNRFSGVPDRFSGSGSGTDFTLKISRVEAEDVGVYYCFQVSHVPYTFGGGTKVEIKRTVAAPDIQMTQSPSSLSASVGDRVTITCRASQSISNNLNWYQQKPGKAPKLLIYYTSRFHSGVPSRFSGSGSGTDFTFTISSLQPEDIATYYCQQEHTLPYTFGQGTKLEIKR
- EC50 ([4]; PGE2 VD in N-terminal position, EP4 bioassay, Ca++ flux, read-out: N-terminal VD PGE2 Neutralization EC50): 0.245 nM
